For assay [1] the following is noted: collected from the references cited; read-out: Activities (Kd), Morphine; cited from earlier work.
The conditions of assay [2]: cited from earlier work.
The conditions of assay [3]: mice; cited from earlier work.
For assay [4] the following is noted: read-out: Kd, morphine; 2 nM [H^3]-morphine, room temperature, 60 minutes, pH 7.4.
Protocol: The binding constant of the antibody with [H^3]-morphine were tested using liquid scintillation counting. Briefly, 2 nM [H^3]-morphine was incubated with different concentration of antibody at room temperature for 60 minutes. The total volume of mixture was 100 and pH was 7.4.
A short description of assay [5]: Competitive binding of [H^3]-morphine against naloxone.
Assay [6] is described as follows: Competitive binding of [H^3]-morphine against oxycodone. As to conditions: read-out: Kd, oxycodone; from IC50 against 2 nM [H^3]-morphine.
The nature of assay [7]: Competitive binding of [H^3]-morphine against meperidine. The settings on record: read-out: Kd, meperidine; from IC50 against 2 nM [H^3]-morphine.
Assay [8] can be described thus: Competitive binding of [H^3]-morphine against naltrexone.
Setting [9] is: collected from the references cited, read-out: Activities (Kd), 6-MAM.
Where [10] appears, read: 10 μM competing drug, 60 nM antibody, 2 nM [H^3]-morphine.

Where a chain is given by its changes, count along the chain named. Where two headings read alike, the source gives them in different places.

B1: Ab19 (antibody, V domains shown)
VH: EVQLVESGGGLVQPGRSLRLSCAASGFSFGDYARIMVRQAPGKGLEWVSGISWDSYTTGYADSVKGRFTVSRDNAICNSLYLQMNSLRPEDTAVYYCAKAPSPRRVIIEYFDSDYWGGTSLTVSS
VL: QSVLTQPPSVSGAPGQRVTISCTGSSSNIGAGYDVHWYQQLPGTAPKLLIYGNSNRPSGVPDRFSGSKSGTSASLAITGLQAEDEADYYCQSYDSSLRGVVFGGGTKLTVL
modifications: Ab19 - Heavy chain; Ab19 - Light chain
Turning to B1, the Kd was ≥ 10000 nM in assay [1] and 160 nM in assay [2] (setting [9]).

B2: Ab21: known anti-6-MAM antibody 6-MAM-103; heavy chain SEQ ID NO: 33, light chain SEQ ID NO: 59 (antibody, V domains shown)
VH: EVQLVESGGGLVQPGRSLRLSCAASGFSFGDYAIHMVRQAPGKGLEWVSGISWDSYTTGYADSVKGRFTVSRDNAICNSLYLQMNSLRPEDTAVYYCAKAPSPRRVIIEYFDSDYWGQGTSLTVSS
VL: B1 VL with V3A, P8A, R98S
modifications: Ab21 - Heavy chain; Ab21 - Light chain
With B2, the Kd was > 10000 nM in assay [1] and 100 nM in assay [2] (setting [9]).

B3: Ab24: known anti-6-MAM antibody 6-MAM-120; heavy chain SEQ ID NO: 36, light chain SEQ ID NO: 62 (antibody, V domains shown)
VH: EVQLVESGGGLVQPGRSLRLSCAASGFTFGDYAIHMVRQAPGKGLEWVAGISWDSYTTGYADSVKGRFTVSRDNAKNSLYLQMNSLRPEDTAVYYCAICAPSPRRVIIEYFQYDYWGQGTSLTVSS
VL: B1 VL with V3A, P8A, R98S
modifications: Ab24 - Heavy chain; Ab24 - Light chain
As to B3, the figures for the Kd in assay [1] and in assay [2] (setting [9]) were > 10000 nM and 250 nM, respectively.

B4: Ab20: known anti-6-MAM antibody 6-MAM-102; heavy chain SEQ ID NO: 32, light chain SEQ ID NO: 58 (antibody, V domains shown)
VH: EVQLVESGGGLVQPGRSLRLSCAASGFSFGDYAIHMVRQAPGKGLEWVSGISWDSYTTGYADSVKGRFTVSRDNAKNSLYLQMNSLRPEDTAVYYCAKAPSPRRVHEYFDSDYWGQGTSLTVSS
VL: B1 VL with V3A, P8A, I20M, Y51F, S54T, G66A, S95N, R98S
modifications: Ab20 - Heavy chain; Ab20 - Light chain
For B4, the Kd in assay [1] is > 10000 nM; in assay [2] (setting [9]), 170 nM.

B5: Ab17: known 6-MAM-specific mAb 6-MAM-214; heavy chain SEQ ID NO: 29, light chain SEQ ID NO: 55 (antibody, V domains shown)
VH: EVQLVESGGGLVQPGRSLRLSCAASGFSFGDYAIHMVRQAPGKGLEWVSGISWDSYTTGYADSVKGRFTVSRDNAKNSLYLQMNSLRPEDTAVYYCAKAPSPRRVIIEYFDSDYWGQGTSLTVSS
VL: QSALTQPASVSGAPGQTVSISCTGWSSNIGAGYDVHWYQQLPGTAPKLLISHNTNRPSGVPDRFSGSKSGTSASLAITGLQAEDEADYYCQSYDSTLGVVVEGGGTICLTVL
modifications: Ab17 - Heavy chain; Ab17 - Light chain
As to B5, the Kd was > 10000 nM in assay [1]; 300 nM in assay [2] (setting [9]); 300 nM in assay [2] (literature value, read-out: affinity for 6-MAM). In assay [3], the “Effect on acute heroin effects” value is recorded as “able to reduce the acute heroin effects in mice”.

B6: Ab22: known anti-6-MAM antibody 6-MAM-108; heavy chain SEQ ID NO: 34, light chain SEQ ID NO: 60 (antibody, V domains shown)
VH: B5 VH
VL: QSVLTQPPSVSGAPGQRVTISCTGSSSNIGAGYDVHWYQQLPGTAPKLLWGNSNRPSGVPDRFSGSKSGTSASLAITGLQAEDEADYYCQSYDSSLSGVVFGGGTKLTVL
modifications: Ab22 - Heavy chain; Ab22 - Light chain
As to B6, the values for the Kd in assay [1] and in assay [2] (setting [9]) were > 10000 nM and 170 nM, respectively.

B7: UK6Mab02: fully humanized antibody (H1L3) designed from Ab13, with human IgG1 heavy and kappa light constant regions (antibody, V domains shown)
VH: EVQLVQSGAEVKKPGASVKISCKASGYTFTSYWIEWVKQAPGKGLEWIGEINPSGGSTIYAEKFQGRATFTADTSTSTAYMELSSLRSEDTAVYYCARWVLDYYGMDYWGQGTSLTVSS
VL: QAVVTQEPSLTVSPGGTVTLTCGSSTGAVTSGNYANWVQQKPGQAFRGLIGGTNTRSSGVPDRFSGSLLGGKAALTISGAQPEDEAEYYCALWYSNKLVFGGGTKLTVL
modifications: H1 (UK6Mab02) Heavy Chain; L3 (UK6Mab02) - Light chain
As to B7, the Kd in assay [4] was 127 nM; in assay [5] (read-out: Kd, naloxone, from competition with 2 nM [H^3]-morphine), > 10000 nM; in assay [6], 6910 nM; in assay [7], 15700 nM; in assay [8] (read-out: Kd, naltrexone, from competition with 2 nM [H^3]-morphine), > 10000 nM. Moreover, the “Binding with naloxone in initial screening” value in assay [5] (setting [10]) is “did not show significant binding affinities”. Besides, in assay [8] (setting [10]), the “Binding with naltrexone in initial screening” value is recorded as “did not show significant binding affinities”.

These data come from US12065507B2 (priority 2020, dated 2024).
